Test system: MS2 coat protein
Assay: apparent KD of MS2 coat protein; designed switch direction (-1 OFF switch, 1 ON switch): 1; higher = weaker reporter binding
Summary of the method: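 Three titration conditions were used: no input, 200 uM small-molecule ligand, and an oligonucleotide input. In each, SNAP-549-labelled MS2 coat protein was raised from 0.7 or 1.5 nM, doubling, to 3 µM over designed RNA switches transcribed on Illumina chips by stalled E. coli RNA polymerase. Curve fits of normalised cluster fluorescence gave values whose per-design median over clusters is the apparent KD.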

[1] = input ligand: microRNA oligo, concentration not stated
[2] = Eterna round: R95, input ligand: FMN 200 uM
[3] = Eterna round: R95, input ligand: microRNA oligo, concentration not stated
[4] = Eterna round: R95, input ligand: none

GUGCUCGUGUGAGGAUAUGUUGCCGGGUCGGCUGCAGAAGGUACUAUUAUACAUGAGGAUCACCCAUGUCGCUUUUCUCCGGUG [salish99_SSNG1_r04_920] (Eterna round: R96, puzzle: Same State NG 1)
apparent KD of MS2 coat protein (input ligand: FMN 200 uM): 98.3 nM
apparent KD of MS2 coat protein [1]: 58.8 nM
apparent KD of MS2 coat protein (input ligand: none): 65.8 nM

ACCCAAAGUAUAUGGGAGCAAGCUUUUUAACAUGAGGAUCACCCAUGUACUCGUCUUAUAAGCAGUCGAAAGACUGC [Sensor 100 - 4] (Eterna round: R96, puzzle: Sensor for hsa-mir-208a)
apparent KD of MS2 coat protein (input ligand: FMN 200 uM): 873 nM
apparent KD of MS2 coat protein [1]: 13.8 nM
apparent KD of MS2 coat protein (input ligand: none): 940 nM

ACAUGAGACCUAGGAUAUCUUGUACCUACAUGUGACAUGAGGAUCACCCAUGUGGUAAGUAUGAGAGAGAAGGAGGAGAUAUGU [Equivalance 54 - Jieux - Same State NG 2] (Eterna round: R96, puzzle: Same State NG 2)
apparent KD of MS2 coat protein (input ligand: FMN 200 uM): 15.4 nM
apparent KD of MS2 coat protein [1]: 12.3 nM
apparent KD of MS2 coat protein (input ligand: none): 17.6 nM

GAUAAACAUGAGGAUCACCCAUGUAAUAAUAUGGGAGGAUAUCAGAAUGUAUGUAUGUAAUGAGAAGGCCUAAUAG [Mat - Same State 1 - Mod of Eli - D72] (puzzle: Same State 1)
apparent KD of MS2 coat protein [2]: 76.7 nM
apparent KD of MS2 coat protein [3]: 229 nM
apparent KD of MS2 coat protein [4]: 391 nM

AACAAUCUAUCUGAGGAUAUCAUGAAAUAAACAUGAGGAUCACCCAUGUGCAGGAAAACUGCAUAUUAGAAGGCAGAUAGAUUGA [salish99_ss2_r3_049] (puzzle: Same State 2)
apparent KD of MS2 coat protein [2]: 163 nM
apparent KD of MS2 coat protein [3]: 38.8 nM
apparent KD of MS2 coat protein [4]: 151 nM

UAGAGAGGAAGCGAGGAUAUCGUGGGAGGGACAUGAGGAUCACCCAUGUAGGAUGUUGAGAGGAACGAGAAGGCGCAGGAAAGAA [JR_SS2_Sub075] (puzzle: Same State 2)
apparent KD of MS2 coat protein [2]: 67.1 nM
apparent KD of MS2 coat protein [3]: 78.1 nM
apparent KD of MS2 coat protein [4]: 110 nM

CGUCCAGCCUGAGCUGGACAAAAGCAUGUACAUGAGGAUCACCCAUGUUCAUGUACAAGCUUUUUGCUCGUCUUAUC [salish99_208a_r3_055] (puzzle: Sensor for hsa-mir-208a)
apparent KD of MS2 coat protein [2]: 597 nM
apparent KD of MS2 coat protein [3]: 14.4 nM
apparent KD of MS2 coat protein [4]: 587 nM

AAAACAUGACGAGGAUAUGGAACAUGAGGAUCACCCAUGUAUGUUCCAUAACGCGAAUGACGAAUCCAGAAGGCGUCGUGAAAA [Mat - Same State NG 2 - JL mod - D27] (Eterna round: R96, puzzle: Same State NG 2)
apparent KD of MS2 coat protein (input ligand: FMN 200 uM): 25.1 nM
apparent KD of MS2 coat protein [1]: 181 nM
apparent KD of MS2 coat protein (input ligand: none): 272 nM

UCUUGGUUUUUGCUCGUUUUUUGUGUUGAACAUGAGGAUCACCCAUGUAUUGUACGAUCCAAUUUAAUAAUGGUCCG [JMF 60] (puzzle: Sensor for hsa-mir-208a)
apparent KD of MS2 coat protein [2]: 42.6 nM
apparent KD of MS2 coat protein [3]: 33.6 nM
apparent KD of MS2 coat protein [4]: 50.2 nM

ACGCAGCUGGGUGAGGAUAUCGGUGGUACAACAUGAGGAUCACCCAUGUCCGAAGCUCGGACCUCCGAGAAGGCGCCCGGCUGCG [Soinraesar Omei Mod 2] (puzzle: Same State 2)
apparent KD of MS2 coat protein [2]: 17.4 nM
apparent KD of MS2 coat protein [3]: 24.8 nM
apparent KD of MS2 coat protein [4]: 57.8 nM

AGAAAUCAACGCGCACAUGAGGAUCACCCAUGUGCUCAAGCACAGGAUAUCGGCACAAGACAGGCCGAGAAGGGUGGAGCACGA [Eternabot solution 3] (Eterna round: R96, puzzle: Same State NG 3)
apparent KD of MS2 coat protein (input ligand: FMN 200 uM): 14.7 nM
apparent KD of MS2 coat protein [1]: 19.7 nM
apparent KD of MS2 coat protein (input ligand: none): 24.1 nM

GCUAGAAAUAAAGCCAACAUGAGGAUCACCCAUGUAUGUUGGCAGGAUAUCGUAUGCAAAGCAUACGAGAAGGGCUAAACUAGC [Mat - Same State NG 3 - JL Mod - D6] (Eterna round: R96, puzzle: Same State NG 3)
apparent KD of MS2 coat protein (input ligand: FMN 200 uM): 129 nM
apparent KD of MS2 coat protein [1]: 149 nM
apparent KD of MS2 coat protein (input ligand: none): 201 nM

GUGGUCAGACAUGAGGAUCACCCAUGUGGAAUAAAUAACGAACAGGAUAUGCAAUAUAGGAUAUAGUAGAAGGGUUGAUUGGUG (Eterna round: R96, puzzle: Same State NG 3)
apparent KD of MS2 coat protein [1]: 82.4 nM

AGUCCAGCGAGAGCUGGACAAAAGCAUGUACAUGAGGAUCACCCAUGUCAUGUACAAGCUUUUUGCUCGUCUUAAAA [Mat - hsa-mir-208a - Mod of JL - D5] (puzzle: Sensor for hsa-mir-208a)
apparent KD of MS2 coat protein [2]: 332 nM
apparent KD of MS2 coat protein [3]: 13.5 nM
apparent KD of MS2 coat protein [4]: 618 nM

AGAGCCGGCACUGAGGAUAUUCAUAAUAAAACAUGAGGAUCACCCAUGUAGGCCAGAAGGCCUUGGGAGAAGGCAGGUCGGCUCU [Mat - Same State 2 - Mod of UCT - D69] (puzzle: Same State 2)
apparent KD of MS2 coat protein [2]: 17.7 nM
apparent KD of MS2 coat protein [3]: 168 nM
apparent KD of MS2 coat protein [4]: 220 nM

CCGGUUUAUGGAGGAUAUGGAGCCUUAUUGGCUCCAGAAGGCUAAACAUGAGGAUCACCCAUGUUACCGGCGGUCAAUAGACCG [Eli NG1ss - 60] (Eterna round: R96, puzzle: Same State NG 1)
apparent KD of MS2 coat protein (input ligand: FMN 200 uM): 11.8 nM
apparent KD of MS2 coat protein [1]: 20.5 nM
apparent KD of MS2 coat protein (input ligand: none): 23.1 nM

CUACUACAUGAGGAUCACCCAUGUUAUAGUGAUGCAGGAUAUGUGUGACCAGAAGAUGAAACAGAAGGGCAAAGAA [JR_SS!_Sub001] (puzzle: Same State 1)
apparent KD of MS2 coat protein [2]: 31.4 nM
apparent KD of MS2 coat protein [3]: 33.1 nM
apparent KD of MS2 coat protein [4]: 30.1 nM

CGAUGAUACUUAGGAAAGAGAGUAGAGGAACAUGAGGAUCACCCAUGUAUGAGCUUUUUGCUCGUCAUGAACAGGAA [JR_SHM208a_Sub008] (puzzle: Sensor for hsa-mir-208a)
apparent KD of MS2 coat protein [2]: 88.6 nM
apparent KD of MS2 coat protein [3]: 62.4 nM
apparent KD of MS2 coat protein [4]: 168 nM

UUACUCAUGUAAGGAUAUGCAGCCGUUUCGGCUGCAGAAGGUACUAUAAUACAUGAGGAUCACCCAUGUCUCUAUUAUUUAGUU [JL SSNG1 1.43] (Eterna round: R96, puzzle: Same State NG 1)
apparent KD of MS2 coat protein (input ligand: FMN 200 uM): 151 nM
apparent KD of MS2 coat protein [1]: 39.6 nM
apparent KD of MS2 coat protein (input ligand: none): 52.7 nM

AAGACAUUUGCUUAGGAUAUACAGGGCUCCACAUGAGGAUCACCCAUGUUAAAAGAGGAGUAAAUGUAGAAGGAAGCCUCCAAUA [Zazaes] (puzzle: Same State 2)
apparent KD of MS2 coat protein [2]: 19.1 nM
apparent KD of MS2 coat protein [3]: 59.8 nM
apparent KD of MS2 coat protein [4]: 66.3 nM

AAACGCAGCAUAUCGCUGCGACAUGAGGAUCACCCAUGUACACAGGAUAUCGCGGCAUACCGCCACGAGAAGGGUGAUCAAGAC [Vebixeriso] (Eterna round: R96, puzzle: Same State NG 3)
apparent KD of MS2 coat protein (input ligand: FMN 200 uM): 676 nM
apparent KD of MS2 coat protein [1]: 82.9 nM
apparent KD of MS2 coat protein (input ligand: none): 45.2 nM

GGAGCCGGCCUAGGAUAUUUCAUAAAAUUACAUGAGGAUCACCCAUGUAGGCCAGAAGGCCUUGGGAAGAAGGAGGUCGGCUCC [Loop Effect - U28,U29] (Eterna round: R96, puzzle: Same State NG 2)
apparent KD of MS2 coat protein (input ligand: FMN 200 uM): 12.9 nM
apparent KD of MS2 coat protein [1]: 17.5 nM
apparent KD of MS2 coat protein (input ligand: none): 28.2 nM

ACCGCGUUUCGCGCCUACAUGAGGAUCACCCAUGUUUGUAGGCAGGAUAUCGUCCGCUCUGCGGGCGAGAAGGGCUGUUGUGGU [salish99_SSNG3_R04_028] (Eterna round: R96, puzzle: Same State NG 3)
apparent KD of MS2 coat protein (input ligand: FMN 200 uM): 49.3 nM
apparent KD of MS2 coat protein [1]: 42.9 nM
apparent KD of MS2 coat protein (input ligand: none): 60.8 nM

CAGCGCUGCCGGGAGGAUAUGCGGUGAUGGACAUGAGGAUCACCCAUGUUAGCGGUAGCAUUACGGCAGAAGGCCCUGCAGCUGC [Soteed Omei mod 1] (puzzle: Same State 2)
apparent KD of MS2 coat protein [2]: 10.9 nM
apparent KD of MS2 coat protein [3]: 12.3 nM
apparent KD of MS2 coat protein [4]: 12.3 nM

AGAUCAUGACGAGGAUAUGGUACAUGAGGAUCACCCAUGUAUGUACCACGACGCGUACGUCGAAUCCAGAAGGCGUCGUGAUCA [Mat - Same State NG 2 - JL mod - D16] (Eterna round: R96, puzzle: Same State NG 2)
apparent KD of MS2 coat protein (input ligand: FMN 200 uM): 19 nM
apparent KD of MS2 coat protein [1]: 66.1 nM
apparent KD of MS2 coat protein (input ligand: none): 99.3 nM

CGUCGUUUGGUAGGAUAUCGCUAUACAUGAGGAUCACCCAUGUUUACCACGCUGGUUUUUCAUACCGAGAAGGAUUCUGAUGUU [salish99_SSNG02_r04_017] (Eterna round: R96, puzzle: Same State NG 2)
apparent KD of MS2 coat protein (input ligand: FMN 200 uM): 16 nM
apparent KD of MS2 coat protein [1]: 14.9 nM
apparent KD of MS2 coat protein (input ligand: none): 19.8 nM

GUGCUCGUGUGAGGAUAUGCUUCCGUUUCGGCUGCAGAAGGUACUAUUAUACAUGAGGAUCACCCAUGUCUCUUUUCUUCGGUG [salish99_SSNG1_r04_912] (Eterna round: R96, puzzle: Same State NG 1)
apparent KD of MS2 coat protein [1]: 22.8 nM

CGUCGCUGUCGAGAGGAUAUGCGGUGAUGGACAUGAGGAUCACCCAUGUUAGCGAUAGCAUCGCGGCAGAAGGCUCUUACGACUG [Soteed Omei mod 28] (puzzle: Same State 2)
apparent KD of MS2 coat protein [2]: 18.6 nM
apparent KD of MS2 coat protein [3]: 19.8 nM
apparent KD of MS2 coat protein [4]: 23.7 nM

GGUGGGUUACUACCCACACAUGAGGAUCACCCAUGUAUUGGGAAGGAUAUGGUGCCUGUGUGGUACCAGAAGGUCGUGAAGGUG [SS-NG3-LRO19] (Eterna round: R96, puzzle: Same State NG 3)
apparent KD of MS2 coat protein (input ligand: FMN 200 uM): 580 nM
apparent KD of MS2 coat protein [1]: 312 nM
apparent KD of MS2 coat protein (input ligand: none): 3470 nM

From the supplement of paper PMC9170038
